This note sets out measurements from patent publication US20120045438A1 (Janssen / Centocor, published 2012).

Where a chain is given by its changes, count along the chain named.

For test [1], the target named is T1, human IL-13 R130Q variant (R110Q of the mature chain) (human, UniProt P35225 35-146, Biotinylated on amines (NHS-LC-biotin, 4:1) in ELISA, panning and competition assays. The letters are unchanged.).
T1 construct: R130Q counts from Met 1 of the signal peptide, R110Q on the mature chain; Bought from Peprotech; also called IL-13 R110Q; b-R130Q
As to the kind of experiment: Ra2 binding inhibition ELISA, mAb in crude HEK293 supernatant, IL-13 binding to IL-13Ra2. (In general: In an ELISA, binding on a coated surface is turned into a signal by an enzyme label.)

Test [2] addresses T1, human IL-13 R130Q variant (R110Q of the …). Briefly: single-point (10 nM) phage Fab ELISA on biotinylated IL-13 R130Q.

B1: mAb with Lc 1A05 (Lc6 variant) and Hc2 (antibody, V domains shown)
VH: QVTLKESGPVLVKPTETLTLTCTVSGFSLSTYGMGVGWIRQPPGKALEWLAHIWWDDVKRYNPALKSRLTISKDTSKSQVVLTMTNMDPVDTATYYCARMGSDYDVWFDYWGQGTLVTVSS
VL: EIVLTQSPATLSLSPGERATLSCRASKSISKYLAWYQQKPGQAPRLLIYSGSTLQSGIPARFSGSGSGTDFTLTISSLEPEDFAVYYCQQQDGPYTFGQGTKLEIK
notes: human IgG1; del = residue deleted
Consider B1, for which the “% Ra2 Binding Inhibition” value in test [1] stood at 82.7%.

B2: Phage # 62 Fab (IL-13-142 library) (Fab, V domains shown)
VH: B1 VH
VL: DIQMTQSPSTLSASVGDRVTITCRASKSISKYLAWYQQKPGKAPKLLIYSGSTLQSGVPSRFSGSGSGTEFTLTISSLQPDDFATYYCQQQDSPYTFGGGTKVEIK
notes: Fab on phage pIX; del = residue deleted
With B2, the “% of Lc16Hc7” value in test [2] was found to be 185%.

B3: Phage # 48 Fab (IL-13-142 library) (Fab, V domains shown)
VH: B1 VH
VL: DIQMTQSPSTLSASVGDRVTITCRASKSISKYLAWYQQKPGKAPKLLIYSGSTLQSGVPSRFSGSGSGTEFTLTISSLQPDDFATYYCQQHDWGPYTFGGGTKVEIK
notes: Fab on phage pIX
As for B3, in test [2], the “% of Lc16Hc7” value came out at 180%.

B4: Phage # 33 Fab (IL-13-142 library) (Fab, V domains shown)
VH: B1 VH
VL: B3 VL
notes: Fab on phage pIX
Take B4: in test [2], the “% of Lc16Hc7” value was determined as 124%.

B5: Phage # 83 Fab (IL-13-142 library) (Fab, V domains shown)
VH: B1 VH
VL: B3 VL with W93M
notes: Fab on phage pIX
With B5, the “% of Lc16Hc7” value in test [2] amounted to 145%.

B6: Phage # 81 Fab (IL-13-142 library) (Fab, V domains shown)
VH: B1 VH
VL: B3 VL with W93V
notes: Fab on phage pIX
For B6, in test [2], the “% of Lc16Hc7” value turned out to be 231%.

B7: Phage # 75 Fab (IL-13-142 library) (Fab, V domains shown)
VH: B1 VH
VL: B3 VL with H91L, D92S, W93Y, G94E
notes: Fab on phage pIX
As for B7, in test [2], the “% of Lc16Hc7” value came out at 355%.

B8: mAb with Lc 1E03 (Lc6 variant) and Hc2 (antibody, V domains shown)
VH: B1 VH
VL: EIVLTQSPATLSLSPGERATLSCRASKSISKYLAWYQQKPGQAPRLLIYSGSTLQSGIPARFSGSGSGTDFTLTISSLEPEDFAVYYCQQHLLGPYTFGQGTKLEIK
notes: human IgG1
Turning to B8, the “% Ra2 Binding Inhibition” value in test [1] stood at 61.5%.

B9: mAb with Lc 1C02 (Lc6 variant) and Hc2 (antibody, V domains shown)
VH: B1 VH
VL: B8 VL with L92V, L93W
notes: human IgG1
Regarding B9, in test [1], the “% Ra2 Binding Inhibition” value turned out to be 68.4%.

B10: Phage # 76 Fab (IL-13-142 library) (Fab, V domains shown)
VH: B1 VH
VL: B3 VL with D92L, W93D, G94L
notes: Fab on phage pIX
Take B10: the “% of Lc16Hc7” value in test [2] was determined as 256%.

B11: Phage # 77 Fab (IL-13-142 library) (Fab, V domains shown)
VH: B1 VH
VL: B3 VL with W93F, G94A
notes: Fab on phage pIX
Turning to B11, the “% of Lc16Hc7” value in test [2] turned out to be 195%.

B12: Phage # 87 Fab (IL-13-142 library) (Fab, V domains shown)
VH: B1 VH
VL: B3 VL with D92S, W93L
notes: Fab on phage pIX
Take B12: the “% of Lc16Hc7” value in test [2] is 125%.

B13: Phage # 80 Fab (IL-13-142 library) (Fab, V domains shown)
VH: B1 VH
VL: B2 VL with S93Y
notes: as for B2
Regarding B13, the “% of Lc16Hc7” value in test [2] was determined as 163%.

B14: Phage # 85 Fab (IL-13-142 library) (Fab, V domains shown)
VH: B1 VH
VL: B3 VL with D92M
notes: Fab on phage pIX
Turning to B14, the “% of Lc16Hc7” value in test [2] was 259%.

B15: mAb with Lc 1B01 (Lc6 variant) and Hc2 (antibody, V domains shown)
VH: B1 VH
VL: B8 VL with L92S, L93W
notes: human IgG1
B15: the “% Ra2 Binding Inhibition” value in test [1] was 77.6%.

B16: Phage # 94 Fab (IL-13-142 library) (Fab, V domains shown)
VH: B1 VH
VL: B3 VL with W93L
notes: Fab on phage pIX
With B16, the “% of Lc16Hc7” value in test [2] stood at 272%.

B17: Phage # 70 Fab (IL-13-142 library) (Fab, V domains shown)
VH: B1 VH
VL: B3 VL with D92S
notes: Fab on phage pIX
Take B17: the “% of Lc16Hc7” value in test [2] worked out at 308%.

B18: Phage # 93 Fab (IL-13-142 library) (Fab, V domains shown)
VH: B1 VH
VL: B3 VL with D92E, W93S
notes: Fab on phage pIX
As for B18, in test [2], the “% of Lc16Hc7” value turned out to be 223%.

B19: Phage # 71 Fab (IL-13-142 library) (Fab, V domains shown)
VH: B1 VH
VL: B3 VL with H91P, D92L, W93D, G94S
notes: Fab on phage pIX
In the case of B19, the “% of Lc16Hc7” value in test [2] amounted to 208%.

B20: Phage # 56 Fab (IL-13-142 library) (Fab, V domains shown)
VH: B1 VH
VL: B3 VL with D92W, W93D, G94A
notes: Fab on phage pIX
As for B20, in test [2], the “% of Lc16Hc7” value was 234%.

B21: Phage # 65 Fab (IL-13-142 library) (Fab, V domains shown)
VH: B1 VH
VL: B3 VL with W93F, G94V
notes: Fab on phage pIX
For the molecule B21, the “% of Lc16Hc7” value in test [2] was found to be 147%.

B22: Phage # 39 Fab (IL-13-142 library) (Fab, V domains shown)
VH: B1 VH
VL: B3 VL with D92L, W93G, G94V
notes: Fab on phage pIX
Regarding B22, the “% of Lc16Hc7” value in test [2] is 178%.

B23: Phage # 88 Fab (IL-13-142 library) (Fab, V domains shown)
VH: B1 VH
VL: B3 VL with D92F
notes: Fab on phage pIX
B23: the “% of Lc16Hc7” value in test [2] was 193%.

B24: Phage # 84 Fab (IL-13-142 library) (Fab, V domains shown)
VH: B1 VH
VL: B3 VL with D92L, W93I, G94E
notes: Fab on phage pIX
Take B24: the “% of Lc16Hc7” value in test [2] was 186%.

B25: Phage # 55 Fab (IL-13-142 library) (Fab, V domains shown)
VH: B1 VH
VL: B3 VL with D92L, W93T, G94N
notes: Fab on phage pIX
Consider B25, for which, in test [2], the “% of Lc16Hc7” value turned out to be 355%.

B26: Phage # 44 Fab (IL-13-142 library) (Fab, V domains shown)
VH: B1 VH
VL: B3 VL with W93I
notes: Fab on phage pIX
Turning to B26, the “% of Lc16Hc7” value in test [2] came out at 240%.

B27: Phage # 43 Fab (IL-13-142 library) (Fab, V domains shown)
VH: B1 VH
VL: B3 VL with D92L, W93G, G94Q
notes: Fab on phage pIX
B27: in test [2], the “% of Lc16Hc7” value was 205%.

B28: Phage # 72 Fab (IL-13-142 library) (Fab, V domains shown)
VH: B1 VH
VL: B3 VL with D92N, W93E
notes: Fab on phage pIX
Take B28: the “% of Lc16Hc7” value in test [2] turned out to be 114%.

B29: Phage # 78 Fab (IL-13-142 library) (Fab, V domains shown)
VH: B1 VH
VL: B3 VL with D92L, W93M, G94A
notes: Fab on phage pIX
Take B29: the “% of Lc16Hc7” value in test [2] came to 154%.

B30: Phage # 40 Fab (IL-13-142 library) (Fab, V domains shown)
VH: B1 VH
VL: B3 VL with D92S, W93R
notes: Fab on phage pIX
In the case of B30, in test [2], the “% of Lc16Hc7” value amounted to 179%.

B31: Phage # 68 Fab (IL-13-142 library) (Fab, V domains shown)
VH: B1 VH
VL: B2 VL with Q91H, S93F
notes: as for B2
With B31, the “% of Lc16Hc7” value in test [2] came to 398%.

B32: Phage # 47 Fab (IL-13-142 library) (Fab, V domains shown)
VH: B1 VH
VL: B3 VL with H91L, D92T, W93Y, G94E
notes: Fab on phage pIX
For the molecule B32, the “% of Lc16Hc7” value in test [2] amounted to 233%.

B33: Phage # 82 Fab (IL-13-142 library) (Fab, V domains shown)
VH: B1 VH
VL: B3 VL with W93V, G94S
notes: Fab on phage pIX
B33: the “% of Lc16Hc7” value in test [2] was determined as 342%.

B34: Phage # 74 Fab (IL-13-142 library) (Fab, V domains shown)
VH: B1 VH
VL: B3 VL with H91Q, W93M
notes: Fab on phage pIX
On to B34, for which the “% of Lc16Hc7” value in test [2] is 301%.

B35: Phage # 57 Fab (IL-13-142 library) (Fab, V domains shown)
VH: B1 VH
VL: B3 VL with G94E
notes: Fab on phage pIX
In the case of B35, in test [2], the “% of Lc16Hc7” value was found to be 245%.

B36: Phage # 51 Fab (IL-13-142 library) (Fab, V domains shown)
VH: B1 VH
VL: B3 VL with D92S, W93A
notes: Fab on phage pIX
With B36, in test [2], the “% of Lc16Hc7” value amounted to 192%.

B37: Phage # 46 Fab (IL-13-142 library) (Fab, V domains shown)
VH: B1 VH
VL: B3 VL with D92V, W93T, G94L
notes: Fab on phage pIX
Take B37: the “% of Lc16Hc7” value in test [2] was 281%.

B38: Phage # 86 Fab (IL-13-142 library) (Fab, V domains shown)
VH: B1 VH
VL: B3 VL with W93T
notes: Fab on phage pIX
B38: in test [2], the “% of Lc16Hc7” value was 334%.

B39: Phage # 61 Fab (IL-13-142 library) (Fab, V domains shown)
VH: B1 VH
VL: B3 VL with D92L, W93F, G94T
notes: Fab on phage pIX
Regarding B39, the “% of Lc16Hc7” value in test [2] is 245%.

B40: Phage # 67 Fab (IL-13-142 library) (Fab, V domains shown)
VH: B1 VH
VL: B3 VL with H91P, D92I, W93D
notes: Fab on phage pIX
In the case of B40, the “% of Lc16Hc7” value in test [2] was 127%.
